Here are results for one protein from publication PMC5730197, “Evolution-guided adaptation of an adenylation domain substrate specificity to an unusual amino acid” (PLoS ONE, 2017).

One may read the Km as the concentration of substrate that gives half-maximal velocity. The term kcat denotes the maximal rate divided by the concentration of active sites. Broadly, the kcat/Km is the second-order rate constant that governs catalysis at low substrate concentration.

Test in all cases: purified protein
Holding throughout (format): biochemical, Streptomyces lincolnensis
Common to all, as to settings: amino acid-dependent exchange of 32P from PPi into ATP

Substrate in data set [1]: CC[C@H]1CN[C@H](C(=O)O)C1
Substrate in data set [2]: CCCC[C@H]1CN[C@H](C(=O)O)C1
Substrate in data set [3]: CCC[C@H]1CN[C@H](C(=O)O)C1
Substrate in data set [4]: CCCCC[C@H]1CN[C@H](C(=O)O)C1

B1: LmbC (Streptomyces lincolnensis) (protein)
chain: MSSSVRLSTLLASAAEARPEAPAVLGETRLPVTYGELAARAGGIQAALAGLGVRAGDRVALLSGRTDADAVAAVHAILAAGAVYVPLDAASPPARWASVSRVCAPTAVVGERALLDRFAAAVPGPRRLALPSDGDELPAGRLDPVRSDGTDVAYLLTTSGSTGVPKCVAHTGAGAVAFLEWMVGAFPVGGDDVFACHAPLHFDVSVASVLGSALGGAALAPVPRELSGFPVELATWIAERAVTVWLSVPYPLARLSGLEERAARERLATLRTVVFAGDVFPHQRLAALMRCAPGARFLNIYGPTETNGCTYEVVDAPPAGPVPIGRPVECAECWVEDDDGRPVDAVGSVGELVVAGPTVAAGYWGVEGHGAERFRTGETCPGGRAYATGDQVRVLPGGRYAFLGRMDNMIKMRGQRFELEEVENAVRLAPGVEDCCVVKVDVRDDHSRLLAVVVGPGAGDPRTLREHCLTRLPSWAVPHRFLTAAALPLGSTGKVDRRALREELVTRGE
notes: full-length stand-alone A-domain, C-terminal His8 tag kept, pET42b (plmbC1), E. coli BL21(DE3)
On to B1, for which the Michaelis constant (Km) in the data set “purified protein [1]” stood at 6400 ± 300 µM; in “purified protein [2]”, 120 ± 6 µM; in “purified protein [3]”, 280 ± 30 µM; in “purified protein [4]”, 60 ± 3 µM. Besides, the kcat came out at 0.55 ± 0.0167 s⁻¹ in the data set “purified protein [3]” and 0.917 ± 0.0133 s⁻¹ in “purified protein [4]”. Besides, the results for the kcat/Km in “purified protein [3]” and in “purified protein [4]” were 2000 M⁻¹ s⁻¹ and 15300 M⁻¹ s⁻¹, respectively.
